Source: patent US20260008830A1 (FUNDACI CENTRE DE REGULACI GEN MICA, published 2026)

T1: IL-10 receptors R1 and R2 on HEK-Blue IL-10 reporter cells (UniProt Q13651 22-578; Q08334 20-325, limits assumed)
T1 sequence (looked up) 1: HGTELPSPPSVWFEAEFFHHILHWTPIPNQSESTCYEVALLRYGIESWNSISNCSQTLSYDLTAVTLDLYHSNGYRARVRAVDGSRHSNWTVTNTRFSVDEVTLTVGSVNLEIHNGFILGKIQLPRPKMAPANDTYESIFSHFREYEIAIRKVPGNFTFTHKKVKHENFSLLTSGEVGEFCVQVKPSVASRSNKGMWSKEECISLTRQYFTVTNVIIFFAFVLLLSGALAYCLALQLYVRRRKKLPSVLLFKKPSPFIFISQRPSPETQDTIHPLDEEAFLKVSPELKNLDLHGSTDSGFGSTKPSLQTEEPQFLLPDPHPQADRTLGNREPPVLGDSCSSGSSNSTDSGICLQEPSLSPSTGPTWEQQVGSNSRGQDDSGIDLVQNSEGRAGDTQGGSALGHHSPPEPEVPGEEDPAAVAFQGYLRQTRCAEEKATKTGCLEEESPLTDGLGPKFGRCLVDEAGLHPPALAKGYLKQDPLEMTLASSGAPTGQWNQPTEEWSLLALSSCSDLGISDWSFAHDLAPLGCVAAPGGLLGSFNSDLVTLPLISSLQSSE
T1 sequence (looked up) 2: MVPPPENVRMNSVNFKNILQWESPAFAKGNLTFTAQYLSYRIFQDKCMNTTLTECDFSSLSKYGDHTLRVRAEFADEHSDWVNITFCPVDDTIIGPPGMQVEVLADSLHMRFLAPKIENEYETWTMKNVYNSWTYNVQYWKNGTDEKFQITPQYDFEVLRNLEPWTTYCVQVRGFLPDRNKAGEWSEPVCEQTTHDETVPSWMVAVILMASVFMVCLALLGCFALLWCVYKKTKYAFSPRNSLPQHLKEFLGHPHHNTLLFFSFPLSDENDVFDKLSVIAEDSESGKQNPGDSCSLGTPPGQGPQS

T2: IL-22 receptors R1 and R2 on HEK-Blue IL-22 reporter cells (UniProt Q8N6P7 16-574; Q08334 20-325, limits assumed)
T2 sequence (looked up) 1: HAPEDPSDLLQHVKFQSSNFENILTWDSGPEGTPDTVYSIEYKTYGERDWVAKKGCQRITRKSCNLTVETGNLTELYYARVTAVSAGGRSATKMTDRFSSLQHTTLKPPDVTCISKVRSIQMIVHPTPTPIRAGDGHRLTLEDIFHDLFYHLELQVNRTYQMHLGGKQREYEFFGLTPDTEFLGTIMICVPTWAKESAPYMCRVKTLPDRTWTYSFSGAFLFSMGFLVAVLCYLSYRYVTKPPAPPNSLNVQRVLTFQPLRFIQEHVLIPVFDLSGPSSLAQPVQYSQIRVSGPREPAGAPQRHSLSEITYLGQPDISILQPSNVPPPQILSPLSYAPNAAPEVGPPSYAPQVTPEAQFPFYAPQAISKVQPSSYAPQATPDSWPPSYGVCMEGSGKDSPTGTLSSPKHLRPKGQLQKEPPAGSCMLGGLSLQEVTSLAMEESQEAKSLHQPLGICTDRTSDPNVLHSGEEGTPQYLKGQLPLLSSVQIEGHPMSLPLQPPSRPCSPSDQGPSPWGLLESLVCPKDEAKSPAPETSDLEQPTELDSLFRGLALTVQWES
T2 sequence (looked up) 2: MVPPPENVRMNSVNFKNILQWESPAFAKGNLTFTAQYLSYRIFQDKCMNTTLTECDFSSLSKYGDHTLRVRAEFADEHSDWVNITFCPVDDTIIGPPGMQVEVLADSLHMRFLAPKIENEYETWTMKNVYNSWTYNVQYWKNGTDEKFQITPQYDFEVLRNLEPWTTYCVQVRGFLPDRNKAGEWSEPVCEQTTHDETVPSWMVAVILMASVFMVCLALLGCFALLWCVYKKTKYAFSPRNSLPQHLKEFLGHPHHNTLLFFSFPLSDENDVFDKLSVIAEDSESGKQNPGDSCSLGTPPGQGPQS


The binders below were run against IL-2 receptor on IL-2 reporter HEK blue cells (Human IL-2 & IL-15 Reporter Cells, hkb-il2bg) (assay: cell-based or functional assay).
Chain of IL-2 receptor on IL-2 reporter HEK blue cells (Human IL-2 & IL-15 Reporter Cells, hkb-il2bg) (P14784 whole entry, chain 1 of 2): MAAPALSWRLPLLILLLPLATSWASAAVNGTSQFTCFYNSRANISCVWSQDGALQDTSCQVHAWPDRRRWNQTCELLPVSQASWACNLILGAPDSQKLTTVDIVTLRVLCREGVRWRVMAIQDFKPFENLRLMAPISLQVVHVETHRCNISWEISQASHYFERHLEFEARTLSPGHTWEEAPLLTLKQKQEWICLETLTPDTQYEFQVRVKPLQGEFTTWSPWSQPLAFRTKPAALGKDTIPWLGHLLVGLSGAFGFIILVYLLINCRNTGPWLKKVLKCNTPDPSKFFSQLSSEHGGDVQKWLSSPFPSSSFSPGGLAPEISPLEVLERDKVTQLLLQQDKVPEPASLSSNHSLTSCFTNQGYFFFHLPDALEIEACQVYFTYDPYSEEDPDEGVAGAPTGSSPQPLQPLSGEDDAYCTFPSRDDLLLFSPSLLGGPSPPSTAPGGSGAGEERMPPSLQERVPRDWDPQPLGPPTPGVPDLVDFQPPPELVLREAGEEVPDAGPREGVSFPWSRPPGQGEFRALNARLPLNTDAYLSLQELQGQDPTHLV
Chain of IL-2 receptor on IL-2 reporter HEK blue cells (Human IL-2 & IL-15 Reporter Cells, hkb-il2bg) (P31785 whole entry, chain 2 of 2, further chain): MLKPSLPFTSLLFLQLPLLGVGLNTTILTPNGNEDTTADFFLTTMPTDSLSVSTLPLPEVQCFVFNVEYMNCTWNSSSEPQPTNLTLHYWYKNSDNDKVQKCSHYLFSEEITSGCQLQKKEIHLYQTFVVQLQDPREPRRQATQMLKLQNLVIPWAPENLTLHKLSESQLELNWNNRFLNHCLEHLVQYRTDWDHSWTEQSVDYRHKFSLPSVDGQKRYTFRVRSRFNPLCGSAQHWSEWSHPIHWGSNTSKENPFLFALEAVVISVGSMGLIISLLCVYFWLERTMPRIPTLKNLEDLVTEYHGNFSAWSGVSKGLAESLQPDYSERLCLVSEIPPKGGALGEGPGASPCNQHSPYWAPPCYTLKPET

Binder | EC-50 (IL-2 reporter HEK blue cells, SEAP, absorbance 630 nm)
ORK2-008 (foldikine-2, two 8 aa InterLinkers GPPPPPPG) (ligand) LRPRDLISNINVIVLELKGSETTFMCEYADETATIVEFLNRWITFCQSIISTLTGPPPPPPGTKKTQLQLEHLLLDLQMILNGINNYKNPKLTRMLTFKFYMPKKATELKHLQCLEEELKPLEEVLNLAQSKNFHLRPRDLISNINVIVLELKGSETTFMCEYADETATIVEFLNRWITFCQSIISTLTGPPPPPPGTKKTQLQLEHLLLDLQMILNGINNYKNPKLTRMLTFKFYMPKKATELKHLQCLEEELKPLEEVLNLAQS | 251 pM
ORK2-009 (foldikine-2, two 6 aa InterLinkers GGGSGG) (ligand) LRPRDLISNINVIVLELKGSETTFMCEYADETATIVEFLNRWITFCQSIISTLTGGGSGGTKKTQLQLEHLLLDLQMILNGINNYKNPKLTRMLTFKFYMPKKATELKHLQCLEEELKPLEEVLNLAQSKNFHLRPRDLISNINVIVLELKGSETTFMCEYADETATIVEFLNRWITFCQSIISTLTGGGSGGTKKTQLQLEHLLLDLQMILNGINNYKNPKLTRMLTFKFYMPKKATELKHLQCLEEELKPLEEVLNLAQS | 211 pM

The next lines start with the values.

EC-50 (IL-2 reporter HEK blue cells, SEAP, absorbance 630 nm) | Binder
184 pM | ORK2-007 (foldikine-2, two 7 aa InterLinkers GPPPPPG) (ligand) LRPRDLISNINVIVLELKGSETTFMCEYADETATIVEFLNRWITFCQSIISTLTGPPPPPGTKKTQLQLEHLLLDLQMILNGINNYKNPKLTRMLTFKFYMPKKATELKHLQCLEEELKPLEEVLNLAQSKNFHLRPRDLISNINVIVLELKGSETTFMCEYADETATIVEFLNRWITFCQSIISTLTGPPPPPGTKKTQLQLEHLLLDLQMILNGINNYKNPKLTRMLTFKFYMPKKATELKHLQCLEEELKPLEEVLNLAQS
190 pM | ORK2-010 (foldikine-2, two 7 aa InterLinkers GGGSGGG) (ligand) LRPRDLISNINVIVLELKGSETTFMCEYADETATIVEFLNRWITFCQSIISTLTGGGSGGGTKKTQLQLEHLLLDLQMILNGINNYKNPKLTRMLTFKFYMPKKATELKHLQCLEEELKPLEEVLNLAQSKNFHLRPRDLISNINVIVLELKGSETTFMCEYADETATIVEFLNRWITFCQSIISTLTGGGSGGGTKKTQLQLEHLLLDLQMILNGINNYKNPKLTRMLTFKFYMPKKATELKHLQCLEEELKPLEEVLNLAQS

What follows are binders tested against T1, IL-10 receptors R1 and R2 on HEK-Blue … (assay: cell-based or functional assay).

Binder | Apparent Kd (M) average (HEK-Blue IL-10 SEAP reporter, absorbance 630 nm, saturation binding fit) | Fold change-apparentKD (against IL-10 ORF)
MutM (engineered monomeric IL-10 with an inserted polyGly loop between Asn116 and Lys117) (ligand) MSPGQGTQSENSCTHFPGNLPNMLRDLRDAFSRVKTFFQMKDQLDNLLLKESLLEDFKGYLGCQALSEMIQFYLEEVMPQAENQDPDIKAHVNSLGENLKTLRLRLRRCHRFLPCENGGGSGGKSKAVEQVKNAFNKLQEKGIYKAMSEFDIFINYIEAYMTMKIRN | 2.56e-10 M | 0.773 fold
Mut3 (IL-10 D28E, S31K, N45S, T155M, N18I, N92I, K99N) (ligand) MSPGQGTQSENSCTHFPGILPNMLRDLREAFKRVKTFFQMKDQLDSLLLKESLLEDFKGYLGCQALSEMIQFYLEEVMPQAENQDPDIKAHVISLGENLNTLRLRLRRCHRFLPCENKSKAVEQVKNAFNKLQEKGIYKAMSEFDIFINYIEAYMMMKIRN | 2.61e-11 M | 7.59 fold
Mut1 (IL-10 D28E, S31R, N45S, T155M) (ligand) MSPGQGTQSENSCTHFPGNLPNMLRDLREAFRRVKTFFQMKDQLDSLLLKESLLEDFKGYLGCQALSEMIQFYLEEVMPQAENQDPDIKAHVNSLGENLKTLRLRLRRCHRFLPCENKSKAVEQVKNAFNKLQEKGIYKAMSEFDIFINYIEAYMMMKIRN | 1.45e-10 M | 1.37 fold
Mut2 (IL-10 D28E, S31K, N45S, T155M) (ligand) MSPGQGTQSENSCTHFPGNLPNMLRDLREAFKRVKTFFQMKDQLDSLLLKESLLEDFKGYLGCQALSEMIQFYLEEVMPQAENQDPDIKAHVNSLGENLKTLRLRLRRCHRFLPCENKSKAVEQVKNAFNKLQEKGIYKAMSEFDIFINYIEAYMMMKIRN | 6.45e-11 M | 3.07 fold

Second part, the binder after the results:

Apparent Kd (M) average (HEK-Blue IL-10 SEAP reporter, absorbance 630 nm, saturation binding fit) | Fold change-apparentKD (against IL-10 ORF) | Binder
1.9e-11 M | 10.4 fold | MutSC1 (foldikine_10, single chain dimeric IL-10) (ligand) MTQSENSCTHFPGNLPNMLRDLRDAFSRVKTFFQMKDQLDNLLLKESLLEDFKGYLGCQALSEMIQFYLEEVMPQAENQDPDIKAHVNSLGENLKTLRLRLRRCHRFLPCENKSKAVEQVKNAFNKLQEKGIYKAMSEFDIFINYIEAYMTMNNGGLDYLPNMLRDLRDAFSRVKTFFQMKDQLDNLLLKESLLEDFKGYLGCQALSEMIQFYLEEVMPQAENQDPDIKAHVNSLGENLKTLRLRLRRNHRFLPCENKSKAVEQVKNAFNKLQEKGIYKAMSEFDIFINYIEAYMTMKIRN
1.2e-11 M | 16.5 fold | MutSC2 (MutSC1 with the Mut3 point mutations) (ligand) MTQSENSCTHFPGILPNMLRDLREAFKRVKTFFQMKDQLDSLLLKESLLEDFKGYLGCQALSEMIQFYLEEVMPQAENQDPDIKAHVISLGENLNTLRLRLRRCHRFLPCENKSKAVEQVKNAFNKLQEKGIYKAMSEFDIFINYIEAYMMMNNGGLDYLPNMLRDLREAFKRVKTFFQMKDQLDSLLLKESLLEDFKGYLGCQALSEMIQFYLEEVMPQAENQDPDIKAHVISLGENLNTLRLRLRRNHRFLPCENKSKAVEQVKNAFNKLQEKGIYKAMSEFDIFINYIEAYMMMKIRN

Each binder was assayed against T2, IL-22 receptors R1 and R2 on HEK-Blue … (assay: cell-based or functional assay).

Binder | Kd (apparent, HEK-Blue IL-22 reporter) | gain in affinity against IL-22 WT (HEK-Blue IL-22 reporter) | apparent Kd in comparison with IL22 WT (HEK-Blue IL-22 reporter) | increase in affinity over wt
3dlq. Pdb sequence-Hydrophobic core stabilised protein (IL-22hydC) (ligand) ARLDKSNFQQPYITNRMFMLAKEMSLADNNTDVRLIGEKLFHGVSMSERCYLMKQILNFMLEEVLFPQSDRFQPYMQEVVPFLARLSNRLSTCHIEGDDLHIQRNVQKLKDTVKKLGELGEIKAIGELDLLFMSLRNACI | 0.0054 nM | 2 fold |  | 
foldikine-22_1 (SCIL22_1) (ligand) GCRLDKSNFQQPYITNRTFMLAKEASLADNNTDVRLIGEKLFHGVSMSERCYLMKQVLNFTLEEVLFPQSDRFQPYMQEVVPFLARLSNRLSTCMPGGSKTHIQRNVQKLKDTVKKLGESGEIKAIGELDLLFMSLRNACIANGTLDKSNFQQPYITNRTFMLAKEASLADNNTDVRLIGEKLFHGVSMSERCYLMKQVLNFTLEEVLFPQSDRFQPYMQEVVPFLARLSNRLSRLELLPHIQRNVQKLKDTVKKLGESGEIKAIGELDLLFMSLRNACI |  |  | ~4 fold | 
mutantD_IL22 (K61W, S64M) (ligand) APISSHCRLDKSNFQQPYITNRTFMLAWEAMLADNNTDVRLIGEKLFHGVSMSERCYLMKQVLNFTLEEVLFPQSDRFQPYMQEVVPFLARLSNRLSTCHIEGDDLHIQRNVQKLKDTVKKLGESGEIKAIGELDLLFMSLRNACI |  |  |  | 2 fold

Next, values leading:

Kd (apparent, HEK-Blue IL-22 reporter) | gain in affinity against IL-22 WT (HEK-Blue IL-22 reporter) | apparent Kd in comparison with IL22 WT (HEK-Blue IL-22 reporter) | increase in affinity over wt | Binder
 |  | ~4 fold |  | foldikine-22_3 (SCIL22_3) (ligand) GVRLDKSNFQQPYITNRTFMLAKEASLADNNTDVRLIGEKLFHGVSMSERCYLMKQVLNFTLEEVLFPQSDRFQPYMQEVVPFLARLSNRLKKLMASSDHIQRNVQKLKDTVKKLGESGEIKAIGELDLLFMSLRNACIANGTLDKSNFQQPYITNRTFMLAKEASLADNNTDVRLIGEKLFHGVSMSERCYLMKQVLNFTLEEVLFPQSDRFQPYMQEVVPFLARLSNRLSRLELLPHIQRNVQKLKDTVKKLGESGEIKAIGELDLLFMSLRNACI
 |  |  | 10 fold | mutantE_IL22 (A132Y, D43E, S45R, E77Y, T70I, K61W, S64M) (ligand) APISSHCREDRSNFQQPYITNRTFMLAWEAMLADNNIDVRLIGYKLFHGVSMSERCYLMKQVLNFTLEEVLFPQSDRFQPYMQEVVPFLYRLSNRLSTCHIEGDDLHIQRNVQKLKDTVKKLGESGEIKAIGELDLLFMSLRNACI
